Laboratory results reported in patent US20200277377A1 (WUXI BIOLOGICS SHANGHAI, published 2020).
Changes are numbered by the printed parent chain.

T1: hCTLA4_ECD.His point mutant M38 to alanine (human, UniProt P16410 36-161)
T1 construct: extracellular domain; alanine-scan mutein, HEK293F supernatant
T1 sequence (looked up): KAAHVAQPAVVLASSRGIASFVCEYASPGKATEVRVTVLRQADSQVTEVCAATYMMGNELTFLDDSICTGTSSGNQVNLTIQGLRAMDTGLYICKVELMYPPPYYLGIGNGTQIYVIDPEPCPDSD

T2: hCTLA4_ECD.His point mutant H39 to alanine (human, UniProt P16410 36-161)
T2 construct: extracellular domain; alanine-scan mutein, HEK293F supernatant
T2 sequence (looked up): T1 sequence (looked up) with A3M, H4A

T3: hCTLA4_ECD.His point mutant V40 to alanine (human, UniProt P16410 36-161)
T3 construct: extracellular domain; alanine-scan mutein, HEK293F supernatant
T3 sequence (looked up): T1 sequence (looked up) with A3M, V5A

T4: hCTLA4_ECD.His point mutant A66 to glycine (human, UniProt P16410 36-161)
T4 construct: extracellular domain; alanine-scan mutein (alanine residues were mutated to glycine), HEK293F supernatant
T4 sequence (looked up): T1 sequence (looked up) with A3M, A31G

T5: hCTLA4_ECD.His point mutant R70 to alanine (human, UniProt P16410 36-161)
T5 construct: extracellular domain; alanine-scan mutein, HEK293F supernatant
T5 sequence (looked up): T1 sequence (looked up) with A3M, R35A

T6: hCTLA4_ECD.His point mutant V73 to alanine (human, UniProt P16410 36-161)
T6 construct: extracellular domain; alanine-scan mutein, HEK293F supernatant
T6 sequence (looked up): T1 sequence (looked up) with A3M, V38A

T7: hCTLA4_ECD.His point mutant L74 to alanine (human, UniProt P16410 36-161)
T7 construct: extracellular domain; alanine-scan mutein, HEK293F supernatant
T7 sequence (looked up): T1 sequence (looked up) with A3M, L39A

T8: hCTLA4_ECD.His point mutant R75 to alanine (human, UniProt P16410 36-161)
T8 construct: extracellular domain; alanine-scan mutein, HEK293F supernatant
T8 sequence (looked up): T1 sequence (looked up) with A3M, R40A

T9: hCTLA4_ECD.His point mutant T88 to alanine (human, UniProt P16410 36-161)
T9 construct: extracellular domain; alanine-scan mutein, HEK293F supernatant
T9 sequence (looked up): T1 sequence (looked up) with A3M, T53A

T10: hCTLA4_ECD.His point mutant C129 to alanine (human, UniProt P16410 36-161)
T10 construct: extracellular domain; alanine-scan mutein, HEK293F supernatant
T10 sequence (looked up): T1 sequence (looked up) with A3M, C94A

T11: hCTLA4_ECD.His point mutant P137 to alanine (human, UniProt P16410 36-161)
T11 construct: extracellular domain; alanine-scan mutein, HEK293F supernatant
T11 sequence (looked up): T1 sequence (looked up) with A3M, P102A

T12: hCTLA4_ECD.His point mutant P138 to alanine (human, UniProt P16410 36-161)
T12 construct: extracellular domain; alanine-scan mutein, HEK293F supernatant
T12 sequence (looked up): T1 sequence (looked up) with A3M, P103A

T13: hCTLA4_ECD.His point mutant I149 to alanine (human, UniProt P16410 36-161)
T13 construct: extracellular domain; alanine-scan mutein, HEK293F supernatant
T13 sequence (looked up): T1 sequence (looked up) with A3M, I114A

B1: W3162-1.146.19-z12-uAb.IgG1K (antibody, V domains shown)
VH: QVQLQESGPGLVKPSETLSLTCSVTYHTITSGYDWTWIRKPPGKGMEWIGYISYSGNTNYNPSLKSRVTISRDTSKNQFFLKLSSVTAADTAVYYCASMMVPHYYVMDAWGQGTLVTVSS
VL: DIVMTQTPLSLSVTPGQPASISCRSSQSLLNSDGNTYLYWYLQKPGQSPQLLIYLVSKLGSGVPNRFSGSGSGTDFTLKISRVEAEDVGVYYCVQGTHDPWTFGGGTKVEIK
notes: Humanized; label says IgG1K
B2: W3162_1.154.8-z35-uAb.IgG1K (antibody, V domains shown)
VH: QVQLVQSGAEVKKPGSSVKVSCKASGYTFTNYFMNWVRQAPGQGLEWMGRVDPEQGRADYAEKFKKRVTITADKSTSTAYMELSSLRSEDTAVYYCARRAMDNYGFAYWGQGTLVTVSS
VL: EIVLTQSPDFQSVTPKEKVTITCSANSALSYMYWYQQKPDQSPKLWVHGTSNLASGVPSRFSGSGSGTDFTLTINSLEAEDAATYYCHHWSNTQWTFGGGTKVEIK
notes: Humanized; label says IgG1K

Key:
Assay in all cases: capture ELISA, alanine scan, vs silent alanine substitutions
[1] = target: T1, hCTLA4_ECD.His point mutant M38 to …
Method: (§1) In order to test how the mutations affect antibody-binding, a capture ELISA was conducted. […] After interacting with the supernatant that contains quantified CTLA4 muteins, HRP conjugated anti-His antibody (1:5000; Rockland Immunochemicals, Pottstown, Pa.) was added as detection antibody. TMB was used as substance of HRP. Absorbance was normalized according to the average of control mutants. After setting an additional cutoff to the binding fold change (<0.55), the final determined epitope residues were identified.

[2] = target: T2, hCTLA4_ECD.His point mutant H39 to …
Method: as §1

[3] = target: T3, hCTLA4_ECD.His point mutant V40 to …
Method: as §1

[4] = target: T4, hCTLA4_ECD.His point mutant A66 to …
Method: as §1

[5] = target: T5, hCTLA4_ECD.His point mutant R70 to …
Method: as §1

[6] = target: T6, hCTLA4_ECD.His point mutant V73 to …
Method: as §1

[7] = target: T7, hCTLA4_ECD.His point mutant L74 to …
Method: as §1

[8] = target: T8, hCTLA4_ECD.His point mutant R75 to …
Method: as §1

[9] = target: T9, hCTLA4_ECD.His point mutant T88 to …
Method: as §1

[10] = target: T10, hCTLA4_ECD.His point mutant C129 to …
Method: as §1

[11] = target: T11, hCTLA4_ECD.His point mutant P137 to …
Method: as §1

[12] = target: T12, hCTLA4_ECD.His point mutant P138 to …
Method: as §1

[13] = target: T13, hCTLA4_ECD.His point mutant I149 to …
Method: as §1

Binder | Fold change [1] [fold] | Fold change [2] [fold] | Fold change [3] [fold] | Fold change [4] [fold] | Fold change [5] [fold] | Fold change [6] [fold] | Fold change [7] [fold] | Fold change [8] [fold] | Fold change [9] [fold] | Fold change [10] [fold] | Fold change [11] [fold] | Fold change [12] [fold] | Fold change [13] [fold]
B1 | 0.182 | 0.529 | 0.181 | 0.395 | 0.507 | 0.338 | 0.398 | 0.278 | 0.423 | 0.182 | 0.425 | 0.445 | 0.183
B2 | 0.238 | 0.549 | 0.187 | 0.519 | 0.515 | 0.498 | 0.52 | 0.298 | 0.433 | 0.211 | 0.534 | 0.339 | 0.319
